Results reported in US20160160263.

Legend:
[1] = system: RS-Q-G-(homoF)-YLY (SEQ ID NO: 71)
[2] = system: T1, YGRAAA (SEQ ID NO: 17), uPA selective substrate
T1 sequence: YGRAAA

[3] = system: SNPYK-Y (SEQ ID NO: 21), MMP9 selective substrate
[4] = system: SNPYG-Y (SEQ ID NO: 23), MMP9 selective substrate
[5] = system: TIAH/LH, MMP2 selective substrate

MMP-9, sequence (chain, as listed by the source): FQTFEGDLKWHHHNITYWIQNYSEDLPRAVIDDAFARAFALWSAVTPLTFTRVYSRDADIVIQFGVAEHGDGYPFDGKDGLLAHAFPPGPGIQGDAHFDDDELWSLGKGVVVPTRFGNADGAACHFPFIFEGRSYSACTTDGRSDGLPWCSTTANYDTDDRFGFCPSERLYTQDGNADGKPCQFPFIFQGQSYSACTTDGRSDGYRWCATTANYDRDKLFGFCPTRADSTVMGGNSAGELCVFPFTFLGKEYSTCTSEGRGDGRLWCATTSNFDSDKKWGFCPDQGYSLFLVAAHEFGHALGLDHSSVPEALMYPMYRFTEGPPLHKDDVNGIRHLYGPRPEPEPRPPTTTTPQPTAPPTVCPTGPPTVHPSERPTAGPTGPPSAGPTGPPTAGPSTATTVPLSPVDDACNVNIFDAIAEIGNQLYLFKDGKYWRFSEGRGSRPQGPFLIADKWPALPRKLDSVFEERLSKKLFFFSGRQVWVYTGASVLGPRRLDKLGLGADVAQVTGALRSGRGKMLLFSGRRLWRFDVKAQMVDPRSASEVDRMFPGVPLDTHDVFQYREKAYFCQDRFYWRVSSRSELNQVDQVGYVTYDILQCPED

MT2-MMP
cleavage of substrate by protease [1]: Only RS-Q-G-(homoF)-YLY (SEQ ID NO: 71) shows significant cleavage by MT2-MMP

urokinase plasminogen activator (uPA)
cleavage of ACPP substrate by protease [2]: efficiently cleaved by uPA

MMP-9
cleavage of ACPP substrate by protease (FAM/Cy5 ratiometric RACPP) [3]: MMP9 selective substrates | cleavage of ACPP substrate by protease (FAM/Cy5 ratiometric RACPP) [4]: MMP9 selective substrates | cleavage of ACPP substrate by protease [5]: selectively cleaved by MMP-2 versus 9 and 14
